For experiment [1], the target named is wild type SARS-COV-2 spike receptor binding domain (RBD), 6His-Strep-TEV-RBD construct, refolded from E. coli (SARS-COV-2) (UniProt P0DTC2).
Experiment [2] deals with SARS-COV-2 spike protein on virus-like particles (VLPs) (SARS-COV-2) (UniProt P0DTC2). Nature of the experiment: cell-based or functional assay.

Consider “LCB3 de novo designed miniprotein (from Cao et al., synthesised through recombinant expression in E. coli) (designed binder)”, for which, in experiment [1], the dissociation constant (Kd) (usually a measure of binding affinity in units of concentration) is 926 nM and the Response Amplitude turned out to be 73.5. The reduction in FITC signal (VLP binding to A549 cells) in experiment [2] came to 84%.

(Values after patent US20250223336A1.)
